From PMC9262582

Biological target: Rum pol (RumA′2B), His-tagged on RumB (integrative conjugative element R391)

S. aureus RecA (from UniProt A5ISG9 1-347) (natural protein)
primer extension (% PE) by Rum Mut-Sa transactivated with Sa RecA*: 4 % PE
